Measurements from doi:10.1101/2020.01.31.925156.
“And” between values parts separate entries of the source, which are not always exact repeats. Equal entries are not always repeated. Where two headings read alike, the source gives them in different places.

How the values were obtained:
Experiment in all cases: mass photometry
[1] = target: deglycosylated trastuzumab
[2] = target: trastuzumab (Herceptin®), immunoglobulin G (IgG) monoclonal antibody
[3] = target: deglycosylated trastuzumab; remark: listed apart in the source
[4] = target: deglycosylated trastuzumab; remark: listed apart in the source
[5] = target: trastuzumab (Herceptin®), immunoglobulin G (IgG) monoclonal antibody; remark: listed apart in the source
[6] = target: recombinant human FcRN (His and Avi tagged), neonatal Fc receptor (human) (UniProt P55899)
[7] = target: recombinant human FcRN (His and Avi tagged), neonatal Fc receptor (human) (UniProt P55899); remark: listed apart in the source
[8] = target: trastuzumab (Herceptin®), immunoglobulin G (IgG) monoclonal antibody; remark: listed apart in the source
[9] = target: trastuzumab (Herceptin®), immunoglobulin G (IgG) monoclonal antibody; remark: listed apart in the source
[10] = target: recombinant human FcRN (His and Avi tagged), neonatal Fc receptor (human) (UniProt P55899); remark: listed apart in the source
[11] = target: recombinant human FcRN (His and Avi tagged), neonatal Fc receptor (human) (UniProt P55899); remark: listed apart in the source

Kd [1] [nM]	percent bound antibody [1] [%]	Kd [2] [nM]	percent complex formation [2] [%]	Kd [3]	Kd [4] [nM]	koff [4] [s⁻¹]	kon [4] [M⁻¹ s⁻¹]	Kd [5] [nM]	koff [5] [s⁻¹]	kon [5] [M⁻¹ s⁻¹]	Kd [6] [nM]	stoichiometry N [6]	Kd [7]	Kd of IgG plus two FcRns (second FcRn) [8]	Kd of IgG-FcRn monomer (first FcRn) [8]	stoichiometry N [8]	Kd [9] [nM]	Kd [10] [nM]	Kd [11] [nM]	Substance
1	50	0.05	90	0.6 nM and 0.7 nM	1.1	0.0068	6e+06	0.026	0.00052	1.9e+07										FcγRIa (CD64 human recombinant, His Tag) (from UniProt P12314) (receptor)
		> 200									31	2	44 nM and 171 nM	6.6 nM and 3.9 nM	59 nM and 225 nM	2	> 200	> 200	> 200	recombinant human FcRN (His and Avi tagged), neonatal Fc receptor (from UniProt P55899)
